Key:
[1] = target: T1, B7-H3 (Sino Biological, Cat #11188-H08H) (UniProt Q5ZPR3 29-461); experiment: ELISA
T1 sequence (looked up): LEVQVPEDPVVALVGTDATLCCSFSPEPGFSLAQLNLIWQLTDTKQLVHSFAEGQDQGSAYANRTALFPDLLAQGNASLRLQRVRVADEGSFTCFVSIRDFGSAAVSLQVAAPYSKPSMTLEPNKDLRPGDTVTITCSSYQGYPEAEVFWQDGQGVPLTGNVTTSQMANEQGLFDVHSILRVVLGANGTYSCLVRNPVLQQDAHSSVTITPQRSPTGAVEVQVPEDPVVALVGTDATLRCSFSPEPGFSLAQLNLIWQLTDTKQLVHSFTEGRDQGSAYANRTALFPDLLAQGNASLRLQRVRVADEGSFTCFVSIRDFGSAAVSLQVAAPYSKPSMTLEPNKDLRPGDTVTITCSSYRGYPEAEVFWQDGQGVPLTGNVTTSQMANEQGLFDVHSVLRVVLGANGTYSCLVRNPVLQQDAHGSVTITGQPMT

[2] = target: T2, CD80 (Sino Biological, Cat #10698-H08H) (UniProt P33681 35-242); experiment: ELISA
T2 sequence (looked up): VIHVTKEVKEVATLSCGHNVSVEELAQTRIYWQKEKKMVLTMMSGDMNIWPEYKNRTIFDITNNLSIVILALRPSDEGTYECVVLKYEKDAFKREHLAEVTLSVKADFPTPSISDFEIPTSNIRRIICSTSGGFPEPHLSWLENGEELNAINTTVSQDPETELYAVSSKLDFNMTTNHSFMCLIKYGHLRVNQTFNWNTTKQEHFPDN

[3] = target: T3, canine PD-L1 (Acro Biosystems, Cat #PDL-C52H4) (canine, UniProt E2RKZ5 19-236); experiment: ELISA
T3 construct: not shown: The vendor's tag, probably a polyhistidine tag
T3 sequence: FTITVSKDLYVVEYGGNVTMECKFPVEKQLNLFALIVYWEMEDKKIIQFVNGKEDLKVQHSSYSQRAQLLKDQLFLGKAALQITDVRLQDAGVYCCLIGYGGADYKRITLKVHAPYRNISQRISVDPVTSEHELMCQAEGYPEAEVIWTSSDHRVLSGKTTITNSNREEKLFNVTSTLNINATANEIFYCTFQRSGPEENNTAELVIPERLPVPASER

[4] = target: mouse PD-L1 (Sino Biological, Cat #50010-M08H) (mouse, UniProt Q9EP73 19-238); experiment: ELISA
Sequence of mouse PD-L1 (Sino Biological, Cat #50010-M08H) (Q9EP73 19-238 limits assumed, stated change not applied): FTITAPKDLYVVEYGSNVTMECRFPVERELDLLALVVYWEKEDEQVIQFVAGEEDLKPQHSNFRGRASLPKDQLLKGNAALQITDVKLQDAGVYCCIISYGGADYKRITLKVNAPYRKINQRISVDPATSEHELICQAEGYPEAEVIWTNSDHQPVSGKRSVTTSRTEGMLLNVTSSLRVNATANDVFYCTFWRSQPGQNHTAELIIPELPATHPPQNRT

[5] = target: T4, BH-H2 (Sino Biological, Cat #11559-H08H) (UniProt O75144 19-258); experiment: ELISA
T4 sequence (looked up): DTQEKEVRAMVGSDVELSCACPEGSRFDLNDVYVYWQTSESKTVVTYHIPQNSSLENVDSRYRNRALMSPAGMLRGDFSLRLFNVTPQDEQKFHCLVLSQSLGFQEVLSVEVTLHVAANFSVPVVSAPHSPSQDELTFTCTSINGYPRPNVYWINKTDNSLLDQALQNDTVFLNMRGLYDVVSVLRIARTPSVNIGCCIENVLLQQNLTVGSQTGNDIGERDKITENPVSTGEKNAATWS

[6] = target: T5, rat PD-L1 (Sino Biological, Cat #80450-R08H) (rat, UniProt D4AE25 19-239); experiment: ELISA
T5 construct: not shown: The vendor's polyhistidine tag
T5 sequence (D4AE25 entry or part of it R08H R08H limits assumed): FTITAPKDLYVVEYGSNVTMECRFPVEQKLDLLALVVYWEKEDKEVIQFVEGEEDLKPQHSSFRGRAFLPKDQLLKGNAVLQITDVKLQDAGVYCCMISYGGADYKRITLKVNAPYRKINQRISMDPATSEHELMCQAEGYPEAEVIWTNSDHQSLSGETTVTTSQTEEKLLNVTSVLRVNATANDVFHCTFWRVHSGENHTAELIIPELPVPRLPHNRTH

[7] = target: T6, CD86 (Sino Biological, Cat #10699-H08H) (UniProt P42081 24-245); experiment: ELISA
T6 sequence (looked up): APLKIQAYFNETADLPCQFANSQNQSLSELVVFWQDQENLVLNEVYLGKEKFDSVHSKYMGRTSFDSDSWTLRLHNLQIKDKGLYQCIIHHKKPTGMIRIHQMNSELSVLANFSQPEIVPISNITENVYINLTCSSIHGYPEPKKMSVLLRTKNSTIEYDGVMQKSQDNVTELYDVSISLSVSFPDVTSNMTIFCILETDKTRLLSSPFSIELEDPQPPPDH

[8] = target: T7, PD-L2 (Sino Biological, Cat #10292-H08H) (UniProt Q9BQ51 20-219); experiment: ELISA
T7 sequence (looked up): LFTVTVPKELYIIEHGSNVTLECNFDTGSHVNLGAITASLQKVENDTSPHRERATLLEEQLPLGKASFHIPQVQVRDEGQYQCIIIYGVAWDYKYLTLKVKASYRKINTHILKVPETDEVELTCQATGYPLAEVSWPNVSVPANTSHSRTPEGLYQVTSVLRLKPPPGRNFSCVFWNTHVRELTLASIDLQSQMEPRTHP

[9] = target: T8, human PD-L1 expressed on cell surface (human, UniProt Q9NZQ7 19-290); experiment: cell-based or functional assay
T8 sequence (Q9NZQ7 19-290 limits assumed): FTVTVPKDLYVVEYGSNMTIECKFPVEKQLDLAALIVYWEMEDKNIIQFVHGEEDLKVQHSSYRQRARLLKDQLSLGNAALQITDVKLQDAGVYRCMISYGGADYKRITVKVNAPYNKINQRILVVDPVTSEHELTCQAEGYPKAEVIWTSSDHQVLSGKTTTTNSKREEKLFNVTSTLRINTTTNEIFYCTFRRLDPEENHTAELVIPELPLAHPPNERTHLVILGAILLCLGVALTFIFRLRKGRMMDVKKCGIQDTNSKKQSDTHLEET

[10] = target: T8, human PD-L1 expressed on cell surface; experiment: flow cytometry, MDA-MB-231-GFP cells
Procedure: Cells were then resuspended in FACS buffer (1×DPBS/1% FBS) at 10⁶/ml concentration. One hundred microliter (100 μl) of cells were aliquoted into a single well in 96 well plates. The antibodies to be tested were serially diluted at 1:3 fold starting at 15 ug/mL and were then added into each well. The antibodies were mixed with cells and the mixtures were incubated on ice for 1 hour. […] After washing with FACS buffer, stained cells were resuspended at diluted […] (Biolegend, Cat #420404, used at 1:100 dilution) and analyzed on Guava 11HT (Luminex). Data was analyzed using Flowjo software.
Anti-HEL isotype control (Biolntron) was used as negative control.

B1: 74F4 (antibody, human IgG1, V domains shown)
VH: QEQLEESGGGLVQPEGSLTLTCTASGFSFSGDYYMSWVRQAPGKGLEWIASIYTGSLNTYYATWAKGRFTISLTSSTTVTLQMTSLTAADTATYFCARRNKNADYGHFDLWGPGTLVTVSS
VL: YDMTQTPASVEVAVGGTVTIKCQASQSINDRLAWYQQSPGQPPKLLIYGASTLASGVPSRFKGSGSGTDFTLTISDLECADAATYYCQQGWTVSSLDNAFGGGTEVVAK
- binding result [1]: no binding
- binding result [2]: no binding
- binding result [3]: no binding
- binding result [4]: no binding
- binding result [5]: no binding
- binding result [6]: no binding
- binding result [7]: no binding
- binding result [8]: no binding
- Internalization (%), FACS, 0.25 µg/ml, 2 h [9]: 19%
- Internalization (%), FACS, 0.25 µg/ml, 4 h [9]: 15.3%
- Internalization (%), FACS, 0.5 µg/ml, 2 h [9]: 22.5%
- Internalization (%), FACS, 0.5 µg/ml, 4 h [9]: 15.7%
- Internalization (%), FACS, 1 µg/ml, 2 h [9]: 19.5%
- Internalization (%), FACS, 1 µg/ml, 4 h [9]: 18.2%
- Internalization (%), FACS, 2 µg/ml, 2 h [9]: 24.1%
- Internalization (%), FACS, 2 µg/ml, 4 h [9]: 22%
- EC50 [10]: 1.44 nM

B2: 55H3/76D6 (antibody, human IgG1, V domains shown)
VH: QEQLEESGGGLVQPEGSLTLTCTVSGFSFSGDYYMSWVRQAPGKGLEWVASIYTGSLNSYYATWAKGRFTISLTSSTTVTLQMTSLTAADTATYFCARRNKNADYGHFDLWGPGTLVTVSS
VL: YDMTQTPASVEVAVGGTVTIKCQASESINDRLAWYQQKPGQPPKLLIYAASTLASGVPSRFRGSGSGTDFTLTISDLECADAATYYCQQGWTVSSLDNAFGGGTEVVAM
- binding result [1]: no binding
- binding result [2]: no binding
- binding result [3]: no binding
- binding result [4]: no binding
- binding result [5]: no binding
- binding result [6]: no binding
- binding result [7]: no binding
- binding result [8]: no binding
- Internalization (%), FACS, 0.25 µg/ml, 2 h [9]: 22.9%
- Internalization (%), FACS, 0.25 µg/ml, 4 h [9]: 20.6%
- Internalization (%), FACS, 0.5 µg/ml, 2 h [9]: 20.8%
- Internalization (%), FACS, 0.5 µg/ml, 4 h [9]: 19.9%
- Internalization (%), FACS, 1 µg/ml, 2 h [9]: 22.1%
- Internalization (%), FACS, 1 µg/ml, 4 h [9]: 17.9%
- Internalization (%), FACS, 2 µg/ml, 2 h [9]: 24.2%
- Internalization (%), FACS, 2 µg/ml, 4 h [9]: 22.2%
- EC50 [10]: 2.93 nM

B3: 57B10 (antibody, human IgG1, V domains shown)
VH: QEQLEESGGGLVQPEGSLTLTCTASGFSFSDDYYMSWVRQAPGKGLEWIASIYTGSLNTYYATWAKGRFTISLTSSTTVTLQMTSLTAADTATYFCARRNKNADWGHFDLWGPGTLVTVSS
VL: YDMTQTPASVEVAVGGTVTIKCQASQSISTALAWYQQKPGQPPKLLIYAASTLASGVPSRFRGSGSGTDFTLTISDLECADAATYYCQQGWTVSSLDNAFGGGTEVVAM
- binding result [1]: no binding
- binding result [2]: no binding
- binding result [3]: no binding
- binding result [4]: no binding
- binding result [5]: no binding
- binding result [6]: no binding
- binding result [7]: no binding
- binding result [8]: no binding
- Internalization (%), FACS, 0.25 µg/ml, 2 h [9]: 19.3%
- Internalization (%), FACS, 0.25 µg/ml, 4 h [9]: 16.5%
- Internalization (%), FACS, 0.5 µg/ml, 2 h [9]: 11.1%
- Internalization (%), FACS, 0.5 µg/ml, 4 h [9]: 21.7%
- Internalization (%), FACS, 1 µg/ml, 2 h [9]: 12.7%
- Internalization (%), FACS, 1 µg/ml, 4 h [9]: 15.6%
- Internalization (%), FACS, 2 µg/ml, 2 h [9]: 19.2%
- Internalization (%), FACS, 2 µg/ml, 4 h [9]: 22.1%
- EC50 [10]: 4.82 nM

B4: 56E5 (antibody, human IgG1, V domains shown)
VH: QEQLEESGGGLVQPEGSLTLTCTASGFSFSGDYYMSWVRQAPGKGLEWIASIYTGSLNTYYATWAKGRFTISLTSSTTVTLQMTSLTAADTATYFCARRHKNADYGHFDLWGPGTLVTVSS
VL: YDMTQTPGSVEVAVGGTVTIKCQASQSINDRLAWYQQTPGQPPKLLIYGASTLASGVPSRFKGSGSGTEFTLTISDLECADAATYYCQQGWTVSSLDNAFGGGTEVVAK
- binding result [1]: no binding
- binding result [2]: no binding
- binding result [3]: no binding
- binding result [4]: no binding
- binding result [5]: no binding
- binding result [6]: no binding
- binding result [7]: no binding
- binding result [8]: no binding
- Internalization (%), FACS, 0.25 µg/ml, 2 h [9]: 22.9%
- Internalization (%), FACS, 0.25 µg/ml, 4 h [9]: 22.1%
- Internalization (%), FACS, 0.5 µg/ml, 2 h [9]: 20.7%
- Internalization (%), FACS, 0.5 µg/ml, 4 h [9]: 19.8%
- Internalization (%), FACS, 1 µg/ml, 2 h [9]: 23.8%
- Internalization (%), FACS, 1 µg/ml, 4 h [9]: 20.6%
- Internalization (%), FACS, 2 µg/ml, 2 h [9]: 24.7%
- Internalization (%), FACS, 2 µg/ml, 4 h [9]: 26.5%
- EC50 [10]: 1.29 nM

B5: 27A2 (antibody, human IgG1, V domains shown)
VH: QEQLEESGGGLVQPEGSLTLTCTASGFSFSSNHYMSWVRQAPGKGLEWIGSIGVGSGITDYASWAKGRFTISKASSTTLTLQMTTLTAADTAIYFCARWTSGGGGFGLWGPGTLVTVSS
VL: QVLTQTSSPVSAAVGGTVTINCQSSQTIYSDYLFWYQQTPGQPPKLLIYQTSTLASGVPSRFKGSGSGTEFTLTISEIQCDDAATYYCQGYYSGYIWTFGGGTEVVVR
- binding result [1]: no binding
- binding result [2]: no binding
- binding result [3]: no binding
- binding result [4]: no binding
- binding result [5]: no binding
- binding result [6]: no binding
- binding result [7]: no binding
- binding result [8]: no binding
- Internalization (%), FACS, 0.25 µg/ml, 2 h [9]: 18.5%
- Internalization (%), FACS, 0.25 µg/ml, 4 h [9]: 18.3%
- Internalization (%), FACS, 0.5 µg/ml, 2 h [9]: 15.5%
- Internalization (%), FACS, 0.5 µg/ml, 4 h [9]: 14.7%
- Internalization (%), FACS, 1 µg/ml, 2 h [9]: 13.7%
- Internalization (%), FACS, 1 µg/ml, 4 h [9]: 13.7%
- Internalization (%), FACS, 2 µg/ml, 2 h [9]: 12.7%
- Internalization (%), FACS, 2 µg/ml, 4 h [9]: 9.7%
- EC50 [10]: 0.14 nM

B6: 56H3 (antibody, human IgG1, V domains shown)
VH: QEQLVESGGGLVQPEGSLTLTCTASEFSFSNNYYMSWVRQAPGKGLEWLGSIGIGSGITDYASWAKGRFTISKASSTTVTLQMTTLTAADTAIYFCARWTSGGGGFGLWGPGTLVTVSS
VL: QVLTQTSSPVSAAVGGTVTINCQSSQTIYSDYLFWYQQKPGQPPKLLIYQTSTLASGVPSRFSGSGSGTQFTLTISGVQCDDAATYYCQGYYSGYIWTFGGGTEVVVN
- binding result [1]: no binding
- binding result [2]: no binding
- binding result [3]: no binding
- binding result [4]: no binding
- binding result [5]: no binding
- binding result [6]: no binding
- binding result [7]: no binding
- binding result [8]: no binding
- Internalization (%), FACS, 0.25 µg/ml, 2 h [9]: 16.3%
- Internalization (%), FACS, 0.25 µg/ml, 4 h [9]: 16%
- Internalization (%), FACS, 0.5 µg/ml, 2 h [9]: 16.1%
- Internalization (%), FACS, 0.5 µg/ml, 4 h [9]: 19%
- Internalization (%), FACS, 1 µg/ml, 2 h [9]: 15.3%
- Internalization (%), FACS, 1 µg/ml, 4 h [9]: 9.1%
- Internalization (%), FACS, 2 µg/ml, 2 h [9]: 6.5%
- Internalization (%), FACS, 2 µg/ml, 4 h [9]: 4.8%
- EC50 [10]: 0.19 nM

From patent publication US20250171542A1 (ADEPT THERAPEUTICS, published 2025)
